Measured values reported in publication PMC2806950.

Biological target: T1, Ocr (overcome classical restriction) protein of bacteriophage T7, unmodified (bacteriophage T7), P03775
T1 chain: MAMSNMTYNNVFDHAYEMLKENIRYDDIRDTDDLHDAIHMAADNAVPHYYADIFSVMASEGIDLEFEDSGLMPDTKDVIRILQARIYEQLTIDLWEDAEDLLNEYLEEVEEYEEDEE
Experiment: native gel or EMSA; blue native PAGE (NativePAGE Novex 4-16% Bis-Tris) of unmodified Ocr; also native 15% PAGE, non-denaturing reducing conditions
Settings: remark: other sources report otherwise

B1: Ocr (overcome classical restriction) protein of bacteriophage T7, unmodified, P03775 1-117 (natural protein)
chain: T1 chain
B1 was tested, and the stoichiometry N was 4.
